Data: FireProtDB (doi:10.1002/prot.20212)
“And” between values parts separate entries of the source, which are not always exact repeats. Equal values may be shown once.

Settings: Capra hircus, 25 °C, GdnHCl, CD, Tris 20 mM, Na+ 80 mM, whole UniProt chain shown

B1: Alpha-lactalbumin wild type, P00712 (protein)
chain: MMSFVSLLLVGILFHATQAEQLTKCEVFQKLKDLKDYGGVSLPEWVCTAFHTSGYDTQAIVQNNDSTEYGLFQINNKIWCKDDQNPHSRNICNISCDKFLDDDLTDDIVCAKKILDKVGINYWLAHKALCSEKLDQWLCEKL
denaturant m value (pH 4.5, transition: 3): 1.34 kcal/mol/M and 1.19 kcal/mol/M
unfolding free energy (pH 4.5, transition: 3): 3.39 kcal/mol and 3.38 kcal/mol
denaturant m value (pH 4.5): 2.53 kcal/mol/M
unfolding free energy (pH 4.5): 6.79 kcal/mol
denaturant m value (pH 5.5): 2.75 kcal/mol/M
unfolding free energy (pH 5.5): 8.8 kcal/mol
denaturant m value (pH 7.5): 3 kcal/mol/M
unfolding free energy (pH 7.5): 10.2 kcal/mol
